Source: patent US5079230A, “Stable bioactive somatotropins” (Pitman-Moore, Inc., priority 1988, dated 1992)

T1: pregnant rabbit liver membranes (Oryctolagus cuniculus, UniProt P19941)
T1 construct: pregnant rabbit liver membranes; from tissue; host or cells: liver membranes of pregnant rabbits
T1 sequence (P19941 19-638): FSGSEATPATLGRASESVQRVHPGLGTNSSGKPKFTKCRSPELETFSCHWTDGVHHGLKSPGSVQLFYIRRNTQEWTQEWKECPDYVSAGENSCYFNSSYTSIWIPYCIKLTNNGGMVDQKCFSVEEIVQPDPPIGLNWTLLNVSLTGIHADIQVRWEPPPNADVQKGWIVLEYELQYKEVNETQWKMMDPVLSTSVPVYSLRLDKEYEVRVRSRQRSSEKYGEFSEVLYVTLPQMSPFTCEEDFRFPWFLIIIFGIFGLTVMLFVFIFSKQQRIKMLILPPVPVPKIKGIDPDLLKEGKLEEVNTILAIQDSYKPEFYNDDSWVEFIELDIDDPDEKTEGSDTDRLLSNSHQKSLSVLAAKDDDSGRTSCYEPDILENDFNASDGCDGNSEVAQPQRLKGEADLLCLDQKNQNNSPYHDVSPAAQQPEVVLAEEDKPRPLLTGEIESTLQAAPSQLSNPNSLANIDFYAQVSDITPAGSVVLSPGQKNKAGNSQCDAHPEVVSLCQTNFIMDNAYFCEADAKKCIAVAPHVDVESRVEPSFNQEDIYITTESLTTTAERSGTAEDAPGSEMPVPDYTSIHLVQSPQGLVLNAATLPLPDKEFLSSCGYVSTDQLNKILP

T2: porcine liver membranes (Sus scrofa, UniProt P19756)
T2 construct: porcine liver membranes; from tissue; host or cells: porcine liver membranes
T2 sequence (P19756 19-638): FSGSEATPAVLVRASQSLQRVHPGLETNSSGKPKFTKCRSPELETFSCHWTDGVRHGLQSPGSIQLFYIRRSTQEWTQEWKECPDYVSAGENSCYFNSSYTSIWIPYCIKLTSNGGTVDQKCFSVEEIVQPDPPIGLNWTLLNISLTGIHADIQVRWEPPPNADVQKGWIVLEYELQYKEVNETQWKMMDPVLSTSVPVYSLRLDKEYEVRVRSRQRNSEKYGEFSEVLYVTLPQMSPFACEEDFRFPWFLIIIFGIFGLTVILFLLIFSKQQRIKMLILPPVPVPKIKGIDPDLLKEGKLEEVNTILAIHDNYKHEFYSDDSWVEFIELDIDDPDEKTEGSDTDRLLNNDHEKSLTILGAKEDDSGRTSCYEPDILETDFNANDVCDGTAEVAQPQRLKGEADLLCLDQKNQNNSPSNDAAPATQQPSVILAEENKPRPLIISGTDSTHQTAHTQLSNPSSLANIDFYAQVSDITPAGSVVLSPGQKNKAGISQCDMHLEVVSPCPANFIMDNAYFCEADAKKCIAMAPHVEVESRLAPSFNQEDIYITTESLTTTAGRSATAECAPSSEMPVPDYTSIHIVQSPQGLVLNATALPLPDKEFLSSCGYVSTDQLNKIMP

B1: pST Standard: pST standard of the hypox rat assay; footnote mentions pituitary derived pST standard (protein, UniProt P01248 27-216, looked up)
Somatotropin: FPAMPLSSLFANAVLRAQHLHQLAADTYKEFERAYIPEGQRYSIQNAQAAFCFSETIPAPTGKDEAQQRSDVELLRFSLLLIQSWLGPVQFLSRVFTNSLVFGTSDRVYEKLKDLEEGIQALMRELEDGSPRAGQILKQTYDKFDTNLRSDDALLKNYGLLSCFKKDLHKAETYLRVMKCRRFVESSCAF
B2: Small-loop derivatized Zn-RpST: zinc form of small-loop derivatized recombinant porcine somatotropin (protein, UniProt P01248 27-216, looked up)
Somatotropin: B1 Somatotropin
modifications: zinc form; small-loop cysteines carbamidomethylated
notes: zinc form of small-loop derivatized recombinant porcine somatotropin
B3: Dialyzed Zn-rpST: dialyzed zinc recombinant porcine somatotropin (protein, UniProt P01248 27-216, looked up)
Somatotropin: B1 Somatotropin
modifications: zinc form
notes: dialyzed zinc recombinant porcine somatotropin
B4: Non-derivatized Zn-rpST: zinc form of non-derivatized recombinant porcine somatotropin (protein, UniProt P01248 27-216, looked up)
Somatotropin: B1 Somatotropin
modifications: zinc form
notes: zinc form of non-derivatized recombinant porcine somatotropin
B5: non-derivatized rpST: unmodified recombinant porcine somatotropin produced in E. coli ATCC 53031 (protein, UniProt P01248 27-216, looked up)
Somatotropin: B1 Somatotropin
modifications: E. coli recombinant
B6: small-loop derivatized rpST: recombinant porcine somatotropin with small-loop disulfide reduced with 2-mercaptoethanol and sulfhydryls carbamidomethylated with iodoacetamide (Example 1) (protein, UniProt P01248 27-216, looked up)
Somatotropin: B1 Somatotropin
modifications: small-loop cysteines carbamidomethylated

What was measured:
[1] = system: hypophysectomized (hypox) rats; assay: body weight gain in hypophysectomized (hypox) rats; format: in vivo, rat; conditions: for % Weight Gain Mean: hypox rats, 24 ug pST/day for 9 days, weight gain over a 10 day period; for % Relative Bioactivity: relative to the pituitary derived pST standard tested at similar concentration, 24 ug
Experimental: The relative bioactivity and biopotency of non-derivatized rpST and small-loop derivatized rpST prepared according to the method of Example 1 was determined by measuring the body weight gain in hypophysectomized (hypox) rats. Four (4) groups of 10 hypox rats per group received 24 μg pST/day of pST standard, dialyzed Zn-rpST, small-loop derivatized Zn-rpST, or non-derivatized Zn-rpSt for 9 days. Rats were monitored daily and their body weight gains recorded over a 10 day period. The weight gain was measured and the percent relative bioactivity calculated as a percent of standard.

[2] = biological target: T1, pregnant rabbit liver membranes; assay: pST binding assay using pregnant rabbit liver membranes and 125I-labelled rpST; conditions: calculated from the IC-50 data relative to the standard
Experimental: The bioactivity of non-derivatized rpST and small-loop derivatized rpST prepared according to the method of Example 1 was determined by pST binding assays using pregnant rabbit liver membranes and ^125 I-labelled rpST. A modified version of the assay disclosed in Tsushima et al., Radioreceptor Assay for Growth Hormone, J. Clin. Endocrinol. Metab., 37:334-337 (1973) was used: The rpST sample was incubated at 30° C. for 3.5 hours with 16,000 cpm ^125 I-rpST. The range of concentration used for the displacement curve of the rpST standard and small-loop derivatized rpST was between 0.38-200 ng/ml. Additional information for the pST binding assay are described in Tsushima et al., Radioreceptor Assay for Growth Hormone, J. Clin. Endocrinol. Metab., 37:334-337 (1973).

[3] = biological target: T2, porcine liver membranes; assay: binding activity in porcine liver membranes (homologous somatotropin radioreceptor assay); conditions: relative to unmodified (non-derivatized) rpST = 100%
Experimental: The bioactivity of non-derivatized rpST and small-loop derivatized rpST prepared according to the method of Example 1 was determined using binding activity in porcine liver membranes according to a modification of the method in Haro et al., Homologous Somatotropin Radio Receptor Assay Utilizing Recombinant Bovine Growth Hormone, Mol. Cell Endocrinol., 38:109-116 (1985).

[4] = solution stability, rpST monomer by Superose-12 size-exclusion chromatography; format: physicochemical; conditions: 8 mg/ml, carbonate buffer pH 9.8 or phosphate buffered saline pH 7.4, 37° C., 0.6-120 days; compared with non-derivatized rpST
Experimental: 8 mg/ml non-derivatized rpST and small-loop derivatized rpST (prepared with IA according to Example 1) solutions containing 0.5% sodium azide were prepared in either 46 mM carbonate buffer (pH 9.8) or phosphate buffered saline (pH 7.4). Aliquots of 1.25 ml were incubated in Eppendorf Microcentrifuge tubes for 0.6, 4.6, 8.8, 22 and 120 days at 37° C.
At the end of each incubation period the aliquots were removed and analyzed for rpST monomer using Superose-12 size-exclusion chromatography with a mobile phase of 46 mM carbonate buffer (pH 9.8).

[5] = stability in the wetted state, rpST monomer recovery; format: physicochemical; conditions: 5 mg wetted with Tris-HCl pH 7.4 or carbonate buffer pH 9.8, 14 days at 37° C.; compared with non-derivatized rpST
Experimental: Non-derivatized rpST and small-loop derivatized rpST (prepared with IA according to Example 1) containing 5 mg/ml were dialyzed against 0.46 mM carbonate buffer an lyophilized to produce dry rpST samples for further testing. Five mg of dry small-loop derivatized and non-derivatized rpST were wetted with 0.01 ml of 50 mM Tris-HCl, pH 7.4, 0.05% sodium azide or 46 mM carbonate buffer, pH 9.8, 0.05% sodium azide. The paste was allowed to incubate for 14 days at 37° C. At the end of this time, the rpST was diluted to a final concentration of about 1.8 mg/ml in 46 mM carbonate buffer, pH 9.8, sonicated in a Branisonic 220 sonicator for several minutes, and centrifuged at 15,000×G for 5 minutes. The supernatant was analyzed for monomer content by the chromatographic procedure described in Example 6.

Molecule | relative bioactivity ([1]; at equivalent dose when the ST was dissolved in 9.5 high pH buffer) [%] | % Weight Gain Mean [1] [%] | % Relative Bioactivity [1] [%] | percent activity [2] | activity [3] [%] | percentage of monomer recovered [4] | recovery of rpST monomer [5]
B1 | 51 | 23.1 | 55 | – | – | – | –
B2 | – | 13.5 | 58 | – | – | – | –
B3 | – | 14.4 | 62 | – | – | – | –
B4 | – | 17.1 | 74 | – | – | – | –
B5 | – | 14.4 | – | about 75% | 100 | – | –
B6 | – | 13.5 | – | 181% | 125 | higher percentage of monomer recovered | much greater
